Assay results published in publication PMC12273918 (2025).

Columns and labels:
CD163 D1-D5 = biological target: T1, CD163 D1-D5 (Homo sapiens, UniProt Q86VB7); assay: SPR
T1 chain: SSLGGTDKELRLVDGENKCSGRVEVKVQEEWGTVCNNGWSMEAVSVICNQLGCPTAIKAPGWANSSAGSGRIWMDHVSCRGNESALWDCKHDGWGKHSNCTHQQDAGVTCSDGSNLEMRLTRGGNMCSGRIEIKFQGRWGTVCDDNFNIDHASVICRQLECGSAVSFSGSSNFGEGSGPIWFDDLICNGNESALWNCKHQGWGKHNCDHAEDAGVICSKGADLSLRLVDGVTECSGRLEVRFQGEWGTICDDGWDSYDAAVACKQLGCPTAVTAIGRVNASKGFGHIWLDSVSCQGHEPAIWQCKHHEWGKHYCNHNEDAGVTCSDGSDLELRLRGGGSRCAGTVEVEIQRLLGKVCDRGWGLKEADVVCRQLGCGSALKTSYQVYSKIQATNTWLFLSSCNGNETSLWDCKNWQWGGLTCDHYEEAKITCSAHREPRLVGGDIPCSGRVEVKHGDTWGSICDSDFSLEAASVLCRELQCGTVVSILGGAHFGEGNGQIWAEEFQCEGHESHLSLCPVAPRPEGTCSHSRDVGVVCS

CD163 42-1045 = CD163 42-1045 (Homo sapiens, UniProt Q86VB7); assay: SPR

B1: Haptoglobin(1-1)-hemoglobin complex (protein)
chain 1: VDSGNDVTDIADDGCPKPPEIAHGYVEHSVRYQCKNYYKLRTEGDGVYTLNDKKQWINKAVGDKLPECEADDGCPKPPEIAHGYVEHSVRYQCKNYYKLRTEGDGVYTLNNEKQWINKAVGDKLPECEAVCGKPKNPANPVQRILGGHLDAKGSFPWQAKMVSHHNLTTGATLINEQWLLTTAKNLFLNHSENATAKDIAPTLTLYVGKKQLVEIEKVVLHPNYSQVDIGLIKLKQKVSVNERVMPICLPSKDYAEVGRVGYVSGWGRNANFKFTDHLKYVMLPVADQDQCIRHYEGSTVPEKKTPKSPVGVQPILNEHTFCAGMSKYQEDTCYGDAGSAFAVHDLEEDTWYATGILSFDKSCAVAEYGVYVKVTSIQDWVQKTIAEN
chain 2: not shown
chain 3: not shown
modifications: Ca2+ (5 mM CaCl2), biotinylated Hp(1-1) immobilized
**Q.** Which results are given for B1?
**A.** Kd (CD163 D1-D5): ~684 nM; Kd (CD163 42-1045): ~72 nM
